# From the supplement of paper PMC9732359
# ± gives the uncertainty stated by the source.
# Assay: protein stability index of a GFP-peptide fusion (yeast GPS) (PSI 1-4); higher = more stable; sorted into four equal gates, so the index is relative within each strain
# Conditions: doa10∆
# In short: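 Tiled yeast protein peptides of 17 residues were each joined downstream of GFP, on plasmids that also express Cherry. The pooled library was maintained in yeast, and mid-log cultures in leucine-free medium were sorted into four equal gates on the GFP/Cherry ratio. Plasmids from every gate were amplified by PCR and sequenced on Illumina, with barcodes linking reads to strains. The protein stability index of a peptide is its gate-number-weighted read frequency summed over the gates.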
row,Sequence,protein stability index
1,NFTSPTAVVNNAAPANV [SWI1],2.86 ± 0.057
2,NGALDPKMGVSSSSLEC [RPO31],3.21 ± 0.097
3,NGCSGADVKGVCTEAGM [RPT6],3.15 ± 0.18
4,NGDLTVSLCAKNMGLVP [SSN2],2.22 ± 0.081
5,NGEEIVGFWKDDGDDED [MTR3],2.52 ± 0.11
6,NGITLALIDAGISMFDY [SKI6],1.38 ± 0.068
7,NGKDNNNESNKNNNGDE [MED2],3.12 ± 0.053
8,NGKIWVKCEELSNTLAC [RRP40],3.29 ± 0.12
9,NGLLNEISRLKTSLSIK [SMC2],3.1 ± 0.21
10,NGNLTSNQLISNYAASN [SWI1],3.13 ± 0.12
11,NGVNVQIDQLNRLLPNL [GRR1],2.86 ± 0.044
12,NHFSLSYKDSGLWGFST [COR1],2.96 ± 0.077
13,NHWRQNKGRAVYINPSG [BRR2],2.97 ± 0.12
14,NIATQQNMQQSLQQMQH [GAL11],2.75 ± 0.076
15,NIDTITDAMTESQPKQT [MCD1],2.71 ± 0.14
16,NIKLLNNRMGSYDCTGV [POP1],2.85 ± 0.078
17,NIKSSISNGNLATGPNL [YOR098C/NUP1],2.77 ± 0.09
18,NILWRIADKTTYDKETI [SIR4],3.2 ± 0.12
19,NIMSASGGLFGNQQQQL [YGL172W/NUP49],3.25 ± 0.067
20,NINAKMETRINILLRER [YIL149C/MLP2],2.98 ± 0.18
21,NIPWDVPGMPAPIKKII [PRP8],2.75 ± 0.3
22,NISKSRAKPVTNSSILL [RRP6],2.14 ± 0.063
23,NISRDFQSYIVSSLPGS [COR1],1.63 ± 0.093
24,NIVNDFTPEEEAAIRRE [SKP1],2.28 ± 0.14
25,NKEMHTDLGKDIPFFPS [SSN2],2.34 ± 0.062
26,NKIDQSLQYIERQQDEL [YJL041W/NSP1],3.18 ± 0.15
27,NKLSSILQNEHDYWNKI [SRB4],2.37 ± 0.069

row,Sequence,protein stability index
1,NKSISDEITEDMFEMSD [SSN2],3.03 ± 0.075
2,NKYQYSLKQYAGNLITT [SRP68],3.23 ± 0.23
3,NLCGDISLEALNFYITN [SIR3],2.55 ± 0.064
4,NLDFDPRDVIKGKDFEI [FAS1],3.47 ± 0.25
5,NLDNLQKVSQLESADKQ [POP4],3.06 ± 0.1
6,NLEFDSTNHPDYDVSKK [SRP14],3.15 ± 0.092
7,NLENMSIQDTSTVAKNV [YCG1],3.01 ± 0.052
8,NLFGATANANKPAFSFG [YJL041W/NSP1],3.05 ± 0.096
9,NLKQANNVAYGKKRFRV [SMC4],2.41 ± 0.11
10,NLPILKNHFRKHWQERV [RPL13A],2.33 ± 0.085
11,NLRHERNSLETKLTTCK [YIL149C/MLP2],2.83 ± 0.13
12,NMFELAQQLVGVYKRDN [SMC4],1.08 ± 0.11
13,NMFGDYSNEPFNTNFDD [SNF6],3.11 ± 0.088
14,NMGMNNMNNGGKELDSL [PGD1],3.54 ± 0.28
15,NMMEHWDYLQLTVAMYI [RPO31],2.08 ± 0.061
16,NMVSLRGRNDTLERVHL [GRR1],2.85 ± 0.086
17,NNDKREIQEELERFNKR [SMC1],2.49 ± 0.24
18,NNDQKRQQAYKTAQTLD [YJL041W/NSP1],3.14 ± 0.071
19,NNHNDSNRLHPPDIHPN [GRR1],2.76 ± 0.046
20,NNMLYPREDKENNRLLF [RPB9],3.13 ± 0.13
21,NNNDNDANRNANNIVNI [GRR1],2.94 ± 0.052
22,NNNDNNNSNTVASSTNF [SWI1],2.92 ± 0.032
23,NNNETSKPAFSFGAKSD [YJL041W/NSP1],2.93 ± 0.11
24,NNNNNNNNNSTRPQMPS [GRR1],2.891 ± 0.019
25,NNNPLQQQSSQNTVPNV [GAL11],2.65 ± 0.046
26,NNSAPNNTNNANSSITP [YJL041W/NSP1],3.01 ± 0.089
27,NNSGNDNNNTTNNDSNN [MED2],3.13 ± 0.035

row,Sequence,protein stability index
1,NNTVDPGFDEFQLIDMK [CSI1],3.18 ± 0.064
2,NNVAYGKKRFRVVTVDG [SMC4],1.93 ± 0.11
3,NPEEVEQVAEEAAAAEE [RPS0B],3.07 ± 0.092
4,NPYNTRSNKIKVVKTPG [RPL34A],1.98 ± 0.065
5,NQFLKIKKKRKELFEKT [SMC1],3.06 ± 0.15
6,NQIPVTEHSKVTRFDEK [SRB6],2.28 ± 0.05
7,NQLLAALVAYTPTDVIG [RRP6],1.66 ± 0.045
8,NQNICTSVTRRSPVFAL [GRR1],1.43 ± 0.039
9,NQQQQNQQPQQQQQQQQ [SWI1],3.06 ± 0.049
10,NQSNLNGGNNTQQPGTN [SNF2],2.76 ± 0.073
11,NRAMEYDALLSINVHSN [RET1],2.58 ± 0.061
12,NRLLPNLPEEERKQIHE [GRR1],1.26 ± 0.14
13,NRSNDALIKFMEYHISN [FAS2],2.93 ± 0.074
14,NSAIIQNLRKELLIYKK [YIL149C/MLP2],3.14 ± 0.084
15,NSASSAPTPAAPGASVP [SWI1],3.04 ± 0.063
16,NSDLEFNTFWDEKGNEI [ARP9],3.41 ± 0.08
17,NSISDFLGEQVNEPTKN [RPN1],3.32 ± 0.12
18,NSISSQPASYHSVQETN [SSN2],2.22 ± 0.049
19,NSIYCPTQTVAELDLMS [RPN6],2.55 ± 0.071
20,NSKPEKSSDSNDSNPSF [YLR335W/NUP2],2.47 ± 0.056
21,NSQERVQDLGSAISVTN [SIR2],2.45 ± 0.16
22,NSRNAIRKLVKNGTIVK [RPL19A],2.84 ± 0.07
23,NSSKYYINEKESSYTEV [SMC4],3.2 ± 0.22
24,NSSNYFGELQFAFLNAM [AAR2],2.86 ± 0.088
25,NSSRFSDPMLQRTATLC [YCS4],2.81 ± 0.12
26,NSSTSSTSNTPSPPNVI [YDL088C/ASM4],2.88 ± 0.05
27,NSTGHSSNTNNNTNNNN [SWI1],3.48 ± 0.069

row,Sequence,protein stability index
1,NTAAALVSLLDENDSKK [YAR002W/NUP60],3.13 ± 0.097
2,NTAPGLGNTVSTQPSFA [YGR119C/NUP57],3.04 ± 0.11
3,NTDLKDIIQGNPLMYSG [PCI8],2.84 ± 0.051
4,NTIRQNVTSSGDHNKLR [YML103C/NUP188],3.12 ± 0.17
5,NTSAKNKNGENKKIGKR [SIR4],3.02 ± 0.27
6,NTSESLLVDIQKYNQIQ [SMC2],1.71 ± 0.07
7,NTSFSFTKPPANETDKR [YOR098C/NUP1],3.08 ± 0.075
8,NTTQDNGGDKELEMIGG [YCS4],3.26 ± 0.17
9,NTTTYKSRPDRPKPVSP [SNF5],3.09 ± 0.045
10,NVAKNMKTPSLTVYLEP [RPO21],3.07 ± 0.1
11,NVEPTENAYKSENAPSA [YAR002W/NUP60],2.81 ± 0.094
12,NVFHGLCAGANNPKIQT [IRR1],1.59 ± 0.062
13,NVGKPDQSIASGNTNGA [YOR098C/NUP1],3 ± 0.2
14,NVKEITEKLKISPESVF [SMC3],1.7 ± 0.086
15,NVLDYFAESPFFDKTSN [MED6],3.46 ± 0.068
16,NVNETMSRSLANGIINV [SMC3],2.75 ± 0.074
17,NVPSTKFNAAPEENATE [SNF12],3.21 ± 0.067
18,NVRDDMKPSDNISTNTN [SSN2],3.1 ± 0.045
19,NVRMDTMANILYYPQKP [RPB2],2.83 ± 0.11
20,NVSIVANYIKERTKNAQ [SMC4],3.02 ± 0.12
21,NVSSNIVKNAEQHNLVK [RPS20],2.81 ± 0.066
22,NVTETYSVYLIHEIRLN [SIR3],2.59 ± 0.23
23,NVYVGMTDMQIQWYKSL [ISW2],1.96 ± 0.057
24,NVYVLPKNLLKKFIEIS [PRP8],1.93 ± 0.048

# Same assay, conditions: pdr5∆
row,Sequence,protein stability index
1,NFTSPTAVVNNAAPANV [SWI1],2.77 ± 0.08
